Target: T1, TROP2蛋白 (TROP2 protein, SEQ ID NO:27) expressed on transduced cells (human, UniProt P09758 27-323)
T1 construct: also called CHO-K1-TROP2细胞; A375-TROP2细胞
T1 sequence: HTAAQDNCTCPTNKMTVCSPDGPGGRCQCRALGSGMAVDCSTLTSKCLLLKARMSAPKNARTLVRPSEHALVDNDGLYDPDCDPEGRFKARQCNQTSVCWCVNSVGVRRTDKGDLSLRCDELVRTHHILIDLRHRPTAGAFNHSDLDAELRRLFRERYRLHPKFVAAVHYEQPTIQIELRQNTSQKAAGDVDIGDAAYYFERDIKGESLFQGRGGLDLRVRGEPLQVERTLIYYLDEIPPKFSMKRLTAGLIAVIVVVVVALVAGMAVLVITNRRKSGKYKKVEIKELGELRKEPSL
Assay: flow cytometry on CHO-K1-TROP2 cells, Alexa-647 rat anti-human Fc detection

B1: CD3×TROP2双特异性抗体 (CD3×TROP2 bispecific antibody) (bispecific antibody, human IgG1, kappa, L234A L235A)
chain: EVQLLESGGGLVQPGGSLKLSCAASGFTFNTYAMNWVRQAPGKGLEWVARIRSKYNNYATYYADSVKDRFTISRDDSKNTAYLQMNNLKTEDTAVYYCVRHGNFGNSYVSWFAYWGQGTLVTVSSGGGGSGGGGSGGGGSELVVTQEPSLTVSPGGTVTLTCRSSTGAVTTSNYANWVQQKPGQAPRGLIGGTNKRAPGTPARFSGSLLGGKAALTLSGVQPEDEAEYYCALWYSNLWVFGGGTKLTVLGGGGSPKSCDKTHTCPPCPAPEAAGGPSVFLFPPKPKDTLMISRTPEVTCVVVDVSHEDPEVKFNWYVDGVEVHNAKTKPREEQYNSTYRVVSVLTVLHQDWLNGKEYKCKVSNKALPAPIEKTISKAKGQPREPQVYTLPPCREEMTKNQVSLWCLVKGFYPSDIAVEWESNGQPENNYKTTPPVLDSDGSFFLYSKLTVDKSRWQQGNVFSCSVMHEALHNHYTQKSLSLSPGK
heavy: QVQLQQSGSELKKPGASVKVSCKASGYTFTNYGMNWVKQAPGQGLKWMGWINTYTGEPTYTDDFKGRFAFSLDTSVSTAYLQISSLKADDTAVYFCARGGFGSSYWYFDVWGQGSLVTVSSASTKGPSVFPLAPSSKSTSGGTAALGCLVKDYFPEPVTVSWNSGALTSGVHTFPAVLQSSGLYSLSSVVTVPSSSLGTQTYICNVNHKPSNTKVDKKVEPKSCDKTHTCPPCPAPEAAGGPSVFLFPPKPKDTLMISRTPEVTCVVVDVSHEDPEVKFNWYVDGVEVHNAKTKPREEQYNSTYRVVSVLTVLHQDWLNGKEYKCKVSNKALPAPIEKTISKAKGQPREPQVCTLPPSREEMTKNQVSLSCAVKGFYPSDIAVEWESNGQPENNYKTTPPVLDSDGSFFLVSKLTVDKSRWQQGNVFSCSVMHEALHNHYTQKSLSLSPGK
light: DIQLTQSPSSLSASVGDRVSITCKASQDVSIAVAWYQQKPGKAPKLLIYSASYRYTGVPDRFSGSGSGTDFTLTISSLQPEDFAVYYCQQHYITPLTFGAGTKVEIKRTVAAPSVFIFPPSDEQLKSGTASVVCLLNNFYPREAKVQWKVDNALQSGNSQESVTEQDSKDSTYSLSSTLTLSKADYEKHKVYACEVTHQGLSSPVTKSFNRGEC
notes: Fc carries L234A/L235A; also called CD3×TROP2重组双特异抗体; CD3×TROP2抗体
Does B1 bind?
Result: binds

Source: CN115232213A (HEFEI TIANGANG IMMUNOLOGY PHARMACEUTICAL CO LTD, dated 2022)
